4 molecules from patent publication US20210388105A1 (ELPISCIENCE SUZHOU BIOPHARMA, published 2021) can be followed below.

The target of one assay is T1, 6×His tagged human CD39 (human, UniProt P49961 38-478).
T1 construct: Analyte in the Biacore assay
T1 sequence: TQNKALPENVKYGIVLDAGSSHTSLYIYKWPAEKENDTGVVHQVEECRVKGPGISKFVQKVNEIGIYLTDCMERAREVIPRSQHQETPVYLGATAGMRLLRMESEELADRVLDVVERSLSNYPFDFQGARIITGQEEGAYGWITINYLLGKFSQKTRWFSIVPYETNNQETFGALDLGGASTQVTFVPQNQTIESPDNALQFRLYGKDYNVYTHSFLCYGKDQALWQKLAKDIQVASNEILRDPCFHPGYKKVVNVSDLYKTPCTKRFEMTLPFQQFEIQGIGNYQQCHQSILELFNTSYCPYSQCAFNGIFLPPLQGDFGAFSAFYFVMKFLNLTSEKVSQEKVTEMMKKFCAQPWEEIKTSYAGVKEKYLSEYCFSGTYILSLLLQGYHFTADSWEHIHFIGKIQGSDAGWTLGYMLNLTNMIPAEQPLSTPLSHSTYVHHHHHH
Put plainly: Biacore SPR, antibody captured on CM5 chip, His-tagged CD39 as analyte. How it is done:
In particular, humanized antibodies hu23.H5L5, hu23.201, hu14.H1L1 and reference antibodies 1394 and T895 were characterized for binding affinity against human CD39 using Biacore (GE). Briefly the antibodies to be tested were captured to CM5 chip (GE) using Human Antibody Capture Kit (GE). The antigen of 6×His tagged human CD39 was serially diluted for multiple doses and injected at 30 μl/min for 180s. Buffer flow was maintained for dissociation of 400s. 3 M MgCl2 was used for chip regeneration. The association and dissociation curves were fit with 1:1 binding model, and the Ka/Kd/KD values for each antibody were calculated.

The target in assay [1] is T2, human CD39 (full length, on cells) (human, UniProt P49961 1-510).
T2 construct: Recombinant on CHOK1-hCD39 cells or natural on SK-MEL-28, SK-MEL-5 and MOLP-8 cells; the cell line is named under assay; also called hCD39; ENTPD1
T2 sequence: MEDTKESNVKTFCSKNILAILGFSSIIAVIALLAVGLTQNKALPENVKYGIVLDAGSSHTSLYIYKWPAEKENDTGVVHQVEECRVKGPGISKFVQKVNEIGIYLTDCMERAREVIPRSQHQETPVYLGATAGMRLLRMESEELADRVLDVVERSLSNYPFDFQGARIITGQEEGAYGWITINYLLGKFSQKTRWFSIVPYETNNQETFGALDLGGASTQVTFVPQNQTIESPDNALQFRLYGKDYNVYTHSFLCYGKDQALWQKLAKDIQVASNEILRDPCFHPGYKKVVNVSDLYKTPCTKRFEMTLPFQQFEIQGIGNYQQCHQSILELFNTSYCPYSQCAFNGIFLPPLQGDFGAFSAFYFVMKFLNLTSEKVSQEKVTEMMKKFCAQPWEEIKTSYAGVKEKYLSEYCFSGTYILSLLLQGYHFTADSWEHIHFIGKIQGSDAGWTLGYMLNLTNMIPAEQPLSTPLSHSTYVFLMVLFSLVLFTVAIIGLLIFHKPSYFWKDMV
In words: FACS, SK-MEL-28 cells. How it is done: (§1) FACS were used to determine binding of the antibodies to cell lines expressing CD39 naturally (SK-MEL-28) or recombinantly (CHOK1-hCD39, CHOK1-cynoCD39, and CHOK1-mCD39), or with cells lacking CD39 expression (CHOK1-blank) as a negative control.
Similarly, human CD39 expressing cells SK-MEL-5, SK-MEL-28 or MOLP-8, were incubated with a gradient concentration of anti-CD39 antibodies for 30 minutes at 4° C. Cells were washed 3 times using FACS buffer and next incubated with fluorescence labelled secondary antibody (goat-anti-mouse IgG or goat anti-human IgG) for 30 minutes at 4° C. Cells were washed 3 times and then re-suspended in FACS buffer and analyzed by flow cytometry analysis on BD Celesta. Data plotted and analyzed using GraphPad Prism 8.02.
In general terms: A flow cytometer gives signals particle by particle.

Assay [2] has as its target T2, human CD39 (full length, on cells). Put plainly: FACS competition on CHOK1-hCD39; competitor mAb19-Alexa488. The method, then: (§2) Anti-CD39 antibodies were labeled using Alex488 labeling kit and were diluted in a series of concentrations, before mixing with CHOK1-hCD39 cells to test binding EC₅₀using FACS. The non-labeled antibodies were tested for their blocking efficacy to the labelled ones. Briefly, mononuclear CHOK1-hCD39 cells were prepared to 2×10⁶/ml and plated into 96 well at 50 μl/well, then mixed with antibodies gradients to final volume at 100 μl, and then equal volume of Alex488 label antibodies were added at two folds EC80 concentration. 96 well plates were incubated at 4° C. for 1 hour, and spun down and washed 3 times with 200 μl FACS buffer. The FACS analysis was performed on FACScelesta machine and data was analyzed by Flowjo software. The blocking percentages were calculated and those having above 80% competition rate were allocated into one epitope group, compared with the non-competing well (Alex488 labeled antibody only).
(§3) Based on the competition results, the 4 anti-CD39 hybridoma antibodies (mAb14, mAb19, mAb21, mAb23) can be grouped into 4 different epitope groups, as shown in Table 11.

Assay [3] shares this target. Put plainly: FACS competition on CHOK1-hCD39; competitor 9-8B-Alexa488. The method, then:
as §2, §3

The target is the same in assay [4]. Put plainly: FACS, CHOK1-hCD39 cells.
From the text: as §1
CHOK1-hCD39, CHOK1-cCD39, CHOK1-mCD39 and CHOK1-blank cells were maintained in culture medium according to ATCC procedure. Cells were collected and re-suspended in blocking buffer at a density of 3×10⁶ cells/ml. Cells were transferred to 96 well FACS plates at 100 μl/well (3×10⁵ cells/well), the plates were centrifuged and washed twice with FACS buffer (PBS, 1% FBS, 0.05% Tween-20). 4-folds serial dilution of anti-CD39 antibodies were prepared in FACS buffer starting from 30 μg/ml. Reference antibody 9-8B and mouse/human control IgG were used as positive and negative controls, respectively. Cells were re-suspended in 100 μL/well diluted antibodies, and the plates were incubated at 4° C. for 60 min. […] The plates were washed with FACS buffer, and cells were re-suspended in 100 μL/well of PBS. Cells were then analyzed with FACSVerse™ and mean fluorescence intensity were determined. Full binding curves were generated on the CD39 expressing cells by testing a range of antibody concentrations. Apparent affinity was determined for each antibody using Prism software.

Assay [5] shares this target. In words: FACS competition on CHOK1-hCD39; competitor mAb14-Alexa488. The method, then:
as §2, §3

One may read the Kd as the free concentration of one partner at which half of the binding sites on the other are occupied at equilibrium, for simple one-to-one binding. For orientation: koff means the rate constant with which the complex falls apart. Higher therefore signals a short-lived complex. By kon is commonly meant the rate constant with which the complex forms. Lower therefore signals slow association. As usually defined, the EC50 is the concentration giving half of the maximal effect.

B1: Antibody T895 (antibody, V domains shown)
VH: EVQLQQSGPELVKPGASVKMSCKASGYTFTDYNMHWVKQSHGRTLEWIGYIVPLNGGSTFNQKFKGRATLTVNTSSRTAYMELRSLTSEDSAAYYCARGGTRFAYWGQGTLVTVSA
VL: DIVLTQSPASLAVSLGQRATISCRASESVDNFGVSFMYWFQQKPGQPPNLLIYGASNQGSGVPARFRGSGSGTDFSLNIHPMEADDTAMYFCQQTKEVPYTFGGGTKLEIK
notes: also called 31895
In the assay with 6×His tagged human CD39, B1 yielded an equilibrium dissociation constant (Kd) of 1040 nM, an off-rate constant (koff) of 0.139 s⁻¹ and an association rate constant (kon) of 133000 M⁻¹ s⁻¹.

B2: hu23.H5L5 (antibody, V domains shown)
VH: QVQLVQSGAEVKKPGASVKVSCKASGYNLKDTFLHWVRQAPGQGLEWMGRIDPANGNIKYDPKFQGRVTITADTSANTAYMELISLRSEDTAVYYCANSPYYYGSGYRIFDVWGQGTTVTVSS
VL: QIVLTQSPATLSLSPGERATLSCSAFSSVNYMHWYQQKPGQAPRLLIYTTSNLASGIPTRFSGSGSGTSYTLTISSLEPEDFAVYYCQQRSTYPFTFGQGTKLEIK
notes: humanized c23
Take B2: in the assay with 6×His tagged human CD39, the Kd amounted to 19.5 nM, the off-rate constant (koff) is 0.0016 s⁻¹ and the kon is 82200 M⁻¹ s⁻¹.

B3: Antibody 9-8B (antibody, V domains shown)
VH: QIQLVQSGPELKKPGETVKISCKASGYTFTHYGMNWVKQAPGKGLKWMGWINTYTGELTYADDFKGRFAFSLETSASTAYLQINNLKNEDTATYFCARRAYYRYDYVMDYWGQGTSVTVSS
VL: DIVMTQSQKFMSTSVGDRVSVTCKASHNVGTNVAWYQQKPGQSPKALIYSASYRYSGVPGRFTGSGSGTDFTLTISNVQSEDLAEYFCHQYNNYPYTFGGGTKLEIK
In the case of B3, the EC50 in assay [1] was found to be 0.8 nM; in assay [4] it was 1.7 nM. The blocking percentage in assay [2] was 19%; in assay [3] it was 98%; in assay [5], 55%.

B4: mAb14 (antibody, V domains shown)
VH: EVKLEESGGGLVQPGGSMKLSCVASGFTFSKYWMNWVRQSPEKGLEWVAEIRLKSNKYGTHYAESVKGRFTISRDDSKNNVYLQMNNLRPEDTGIYYCTTQLDLYWFFDVWGAGTTVTVSS
VL: DIVMTQSPAILSVTPGDRVSLSCRASQSISDYLHWYQQKSHESPRLLIKYASQSISGIPSRFSGSGSGSNFTLSINSVEPEDVGVYFCQNGHSLPLTFGAGTKLELR
notes: mouse hybridoma antibody
In the case of B4, the half-maximal effective concentration (EC50) is 28 nM in assay [1] and 2.5 nM in assay [4]. Further, the figures for the blocking percentage in assay [2], in assay [3] and in assay [5] were 6%, -11% and 98%, respectively.
